From IntAct's records for PubMed 19625296

Legend:
dvl2_human DVL2 = dvl2_human DVL2 (UniProt O14641)
dvl3_human DVL3 = dvl3_human DVL3 (UniProt Q92997)
Sequence of UniProt Q92997 (Q92997 whole entry): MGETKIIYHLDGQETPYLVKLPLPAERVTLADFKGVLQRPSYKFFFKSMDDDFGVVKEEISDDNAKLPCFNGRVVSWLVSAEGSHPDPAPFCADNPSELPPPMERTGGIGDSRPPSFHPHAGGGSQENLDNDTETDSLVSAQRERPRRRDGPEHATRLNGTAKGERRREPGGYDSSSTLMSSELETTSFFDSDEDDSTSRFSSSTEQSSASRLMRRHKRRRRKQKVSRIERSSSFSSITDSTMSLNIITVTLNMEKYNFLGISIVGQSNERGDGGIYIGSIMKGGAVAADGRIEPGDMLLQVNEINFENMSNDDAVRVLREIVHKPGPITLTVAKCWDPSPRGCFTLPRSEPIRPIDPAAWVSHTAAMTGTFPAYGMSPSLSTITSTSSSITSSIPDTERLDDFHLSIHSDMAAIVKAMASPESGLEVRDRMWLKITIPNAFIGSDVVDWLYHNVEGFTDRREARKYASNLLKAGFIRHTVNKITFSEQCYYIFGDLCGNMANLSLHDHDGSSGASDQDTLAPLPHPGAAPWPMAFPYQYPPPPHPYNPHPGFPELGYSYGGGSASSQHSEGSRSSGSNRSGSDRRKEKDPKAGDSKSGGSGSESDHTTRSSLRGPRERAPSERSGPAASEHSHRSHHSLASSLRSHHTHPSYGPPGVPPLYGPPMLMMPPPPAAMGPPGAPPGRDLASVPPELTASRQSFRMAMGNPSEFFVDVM

Sequence of DVL1, O14640-2 (O14640 other isoform, or with tags, fused parts or gaps): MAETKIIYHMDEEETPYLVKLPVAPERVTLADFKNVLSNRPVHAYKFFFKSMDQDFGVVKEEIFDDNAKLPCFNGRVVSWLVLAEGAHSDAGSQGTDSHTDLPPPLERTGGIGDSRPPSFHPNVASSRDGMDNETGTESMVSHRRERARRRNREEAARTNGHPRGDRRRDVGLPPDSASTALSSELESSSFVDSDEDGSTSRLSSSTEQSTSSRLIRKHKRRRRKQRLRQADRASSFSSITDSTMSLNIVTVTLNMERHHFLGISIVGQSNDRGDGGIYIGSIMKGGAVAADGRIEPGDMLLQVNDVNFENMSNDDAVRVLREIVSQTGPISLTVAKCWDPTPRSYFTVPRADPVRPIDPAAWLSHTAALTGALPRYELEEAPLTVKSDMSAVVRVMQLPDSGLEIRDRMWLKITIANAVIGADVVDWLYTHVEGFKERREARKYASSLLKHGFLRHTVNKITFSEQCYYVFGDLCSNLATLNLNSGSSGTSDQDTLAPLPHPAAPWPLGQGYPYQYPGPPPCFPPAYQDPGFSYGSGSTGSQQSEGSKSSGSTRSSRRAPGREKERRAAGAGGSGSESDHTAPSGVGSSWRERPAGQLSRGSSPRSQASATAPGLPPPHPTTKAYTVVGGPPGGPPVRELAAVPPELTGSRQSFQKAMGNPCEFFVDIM
Sequence of UniProt O14641 (O14641 whole entry): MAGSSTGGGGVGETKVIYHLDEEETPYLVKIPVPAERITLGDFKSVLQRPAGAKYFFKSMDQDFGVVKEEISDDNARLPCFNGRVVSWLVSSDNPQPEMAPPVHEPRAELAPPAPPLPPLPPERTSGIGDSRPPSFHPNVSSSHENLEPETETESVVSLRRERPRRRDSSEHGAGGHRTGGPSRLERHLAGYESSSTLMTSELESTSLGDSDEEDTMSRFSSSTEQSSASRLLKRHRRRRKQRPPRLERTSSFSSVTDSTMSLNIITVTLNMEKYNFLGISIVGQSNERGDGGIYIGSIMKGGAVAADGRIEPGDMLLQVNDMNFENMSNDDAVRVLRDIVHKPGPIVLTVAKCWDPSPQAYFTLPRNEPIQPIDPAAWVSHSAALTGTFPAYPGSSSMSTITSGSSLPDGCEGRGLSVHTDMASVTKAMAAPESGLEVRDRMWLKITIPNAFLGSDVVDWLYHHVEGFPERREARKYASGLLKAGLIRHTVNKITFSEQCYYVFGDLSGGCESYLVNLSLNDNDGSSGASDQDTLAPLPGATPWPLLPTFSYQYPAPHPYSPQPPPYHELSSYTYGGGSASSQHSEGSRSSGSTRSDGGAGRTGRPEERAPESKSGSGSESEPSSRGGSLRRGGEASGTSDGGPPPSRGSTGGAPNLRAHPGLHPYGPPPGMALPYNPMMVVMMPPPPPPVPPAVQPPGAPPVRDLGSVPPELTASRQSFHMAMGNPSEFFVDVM

Substance | effect of a mutation on the interaction (DVL1, O14640-2) | effect of a mutation on the interaction (dvl2_human DVL2) | effect of a mutation on the interaction (dvl3_human DVL3)
Leucine-rich repeat serine/threonine-protein kinase 2 (Homo sapiens), Q5S007 R1514Q |  | decreasing interaction | 
Leucine-rich repeat serine/threonine-protein kinase 2 (Homo sapiens), Q5S007 R1728H | increasing interaction |  | 
Leucine-rich repeat serine/threonine-protein kinase 2 (Homo sapiens), Q5S007 Y1699C | decreasing interaction | decreasing interaction | decreasing interaction

The next lines start with the values.

effect of a mutation on the interaction (DVL1, O14640-2) | effect of a mutation on the interaction (dvl2_human DVL2) | effect of a mutation on the interaction (dvl3_human DVL3) | Substance
increasing interaction |  |  | Leucine-rich repeat serine/threonine-protein kinase 2 (Homo sapiens), Q5S007 R1441C
increasing interaction |  |  | Leucine-rich repeat serine/threonine-protein kinase 2 (Homo sapiens), Q5S007 R1441G
increasing interaction |  |  | Leucine-rich repeat serine/threonine-protein kinase 2 (Homo sapiens), Q5S007 R1441H
increasing interaction |  |  | Leucine-rich repeat serine/threonine-protein kinase 2 (Homo sapiens), Q5S007 R1728L
